# Data published in patent US7892767B2, “Phosphospecific chemokine receptor antibodies” (Washington University in St. Louis, priority 2005, dated 2011).
# B1: EGF: growth factor, ligand of the EGF receptor (protein, UniProt P01133 23-1207, looked up)
# Pro-epidermal growth factor: PQHWSCPEGTLAGNGNSTCVGPAPFLIFSHGNSIFRIDTEGTNYEQLVVDAGVSVIMDFHYNEKRIYWVDLERQLLQRVFLNGSRQERVCNIEKNVSGMAINWINEEVIWSNQQEGIITVTDMKGNNSHILLSALKYPANVAVDPVERFIFWSSEVAGSLYRADLDGVGVKALLETSEKITAVSLDVLDKRLFWIQYNREGSNSLICSCDYDGGSVHISKHPTQHNLFAMSLFGDRIFYSTWKMKTIWIANKHTGKDMVRINLHSSFVPLGELKVVHPLAQPKAEDDTWEPEQKLCKLRKGNCSSTVCGQDLQSHLCMCAEGYALSRDRKYCEDVNECAFWNHGCTLGCKNTPGSYYCTCPVGFVLLPDGKRCHQLVSCPRNVSECSHDCVLTSEGPLCFCPEGSVLERDGKTCSGCSSPDNGGCSQLCVPLSPVSWECDCFPGYDLQLDEKSCAASGPQPFLLFANSQDIRHMHFDGTDYGTLLSQQMGMVYALDHDPVENKIYFAHTALKWIERANMDGSQRERLIEEGVDVPEGLAVDWIGRRFYWTDRGKSLIGRSDLNGKRSKIITKENISQPRGIAVHPMAKRLFWTDTGINPRIESSSLQGLGRLVIASSDLIWPSGITIDFLTDKLYWCDAKQSVIEMANLDGSKRRRLTQNDVGHPFAVAVFEDYVWFSDWAMPSVMRVNKRTGKDRVRLQGSMLKPSSLVVVHPLAKPGADPCLYQNGGCEHICKKRLGTAWCSCREGFMKASDGKTCLALDGHQLLAGGEVDLKNQVTPLDILSKTRVSEDNITESQHMLVAEIMVSDQDDCAPVGCSMYARCISEGEDATCQCLKGFAGDGKLCSDIDECEMGVPVCPPASSKCINTEGGYVCRCSEGYQGDGIHCLDIDECQLGEHSCGENASCTNTEGGYTCMCAGRLSEPGLICPDSTPPPHLREDDHHYSVRNSDSECPLSHDGYCLHDGVCMYIEALDKYACNCVVGYIGERCQYRDLKWWELRHAGHGQQQKVIVVAVCVVVLVMLLLLSLWGAHYYRTQKLLSKNPKNPYEESSRDVRSRRPADTEDGMSSCPQPWFVVIKEHQDLKNGGQPVAGEDGQAADGSMQPTSWRQEPQLCGMGTEQGCWIPVSSDKGSCPQVMERSFHMPSYGTQTLEGGVEKPHSLLSANPLWQQRALDPPHQMELTQ
# modifications: Pro-epidermal growth factor
# notes: growth factor, ligand of the EGF receptor
# Target: T1, CXCR4 (Homo sapiens, UniProt P61073)
# T1 construct: lysates from the glioblastoma cell line LN428, which is known to express high levels of CXCR4; endogenous in cells; host or cells: LN428 GBM cell line
# Test: Stimulated CXCR4 phosphorylation in LN428 GBM cells (western blot)
# Format: cell-based
# Procedure: Cell Culture, transfections and stimulation of CXCR4 phosphorylation. The U87 glioblastoma multiforme (GBM, grade IV) cell line was obtained from the American Type Culture Collection. The LN428 GBM cell line was a kind gift of Dr Erwin van Meir (Winship Cancer Center, Emory University, Atlanta, Ga.). U87 cells were grown in minimum essential a media supplemented with 10% fetal bovine serum ((FBS), Biomedia, Foster City, Calif.). LN428 cells were grown in DMEM (Fisher, Pittsburgh, Pa.) supplemented with 10% horse serum (Sigma). All cells were grown in the presence of penicillin-streptomycin. The coding sequence for human CXCR4 was obtained by high fidelity RT-PCR (Superscript III Platinum, Invitrogen), and cloned into the expression vector pMSCVneo (Clontech, Palo Alto, Calif.). Transfections were performed with 0.3 μg of plasmid DNA in 20 μl Lipofectamine (Invitrogen)/35 mm^2 tissue culture dish for 9 hours according to the manufacturer's instructions. Cells recovered in Optimem supplemented with 10% FBS. Transfected and non-transfected cells were placed in serum free media for 24 hours prior to treatment with agents to stimulate CXCR4 phosphorylation. Treatment was usually for 0 or 10 minutes with 1 μg/ml CXCL12 (Peprotech, Rocky Hill N.J.), 4 μM 4-Phorbol 12-myristate 13-acetate (PMA) or 10 nM EGF. In some experiments, CXCL12 was washed away and cells were incubated for an additional 20 minutes in serum free media alone.
# Western Blot Analysis. […] Peroxide activity was detected using the enhanced chemiluminescence Supersignal West Dura system (Pierce, Rockford, Ill.). […]
# The utility of these antibodies for evaluating the relationship between ligand binding and CXCR4 function is dependent upon their ability to distinguish a ligand activated form of the receptor. […] Serum starved LN428 cells were treated with 1 μg/ml CXCL12 for 0 or 10 minutes and the abundance of phospho-CXCR4 was determined by western blot and immuno-localization in fixed cells. […]
# [1] = 1 μg/ml CXCL12, 4 μM PMA or 10 nM EGF
# T1 sequence (P61073 whole entry): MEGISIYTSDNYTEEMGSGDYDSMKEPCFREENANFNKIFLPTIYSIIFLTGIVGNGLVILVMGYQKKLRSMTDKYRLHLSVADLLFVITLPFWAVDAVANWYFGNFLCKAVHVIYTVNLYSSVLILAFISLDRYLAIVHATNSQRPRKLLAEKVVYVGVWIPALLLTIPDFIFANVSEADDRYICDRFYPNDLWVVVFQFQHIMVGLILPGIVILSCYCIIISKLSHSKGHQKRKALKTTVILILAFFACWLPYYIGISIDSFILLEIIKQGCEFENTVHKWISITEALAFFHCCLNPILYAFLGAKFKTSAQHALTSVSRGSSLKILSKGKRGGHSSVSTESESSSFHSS
molecule,measurement,setting,value
B1,P338 phosphorylation stimulated,[1],not
same,P339 phosphorylation,[1],stimulated
same,P339-CXCR4 immunoreactivity compared with response to CXCL12,4 μM PMA or 10 nM EGF,greater
